Assay results published in a protein production outcome set (Wang et al. 2014).

Assay: label from the status in PepcDB records
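Note: failed if final PepcDB status was selected cloned or expressed and not failed if soluble or beyond.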

| Sequence | protein production |
| --- | --- |
| MLEGIYLALDKMFGPMLRNTHPMWVVTVSGVILGAFFVLLNYFLVDQEKMKRLQKMAKELQEEFKKARESGDEKKLRKLQQKQLELLRLQNELMKDAFLKPMLITWPIIIIFWGWLKRWYFETAIVKYPFNFFLFDIFHKMYHSALKPDELGYFGWYFLTSYVVGTILRKVLDMA | failed |
| GRAPRNGEKVLVEFVSANPTGPLHVGHARQAALGDAICRLYDASGWDVTREFYYNDAGNQIDNLAISVQARGRGIAPDAPDYPADGYKGDYIVEIARDFAARKSVQASDGQPVTATGDLDSLDDIRAFAVAYLRREQDLDLQAFGLAFDNYFLESSLYASGRVQETVDTLVAKGHTYEEGGALWLRTTELGTGDDKDRVMRKSEGGYTYFVPDVAYHKVKWERGFHHAVNIQGSDHHGTVARVRAGLQGLAGIPKDFPAYVLHKMVKVMRGGEEVKISKRAGSYVTMRDLIDWVGRDAVRYFLIQRRADTEFVFDIDLALSKSDENPVYYIQYAHARICTMIGNSGA | failed |
| MSKFTIHTIETAPERVKETLRTVKKDNGGYIPNLIGLLANAPTALETYRTVGEINRRNSLTPTEREVVQITAAVTNGCAFCVAGHTAFSIKQIQMAPDLLEALRNATPIDDDPKLDTLAKFTIAVINTKGRVGDEAFADFLEVGYTPENALDVVLGVSLASLCNYANNMADTPINPELQQYVK | not failed |
| MPAAAYWLPASDETPLYTRHWPSATAVGAVMLSHGMAEHAGRYERLAAALNAAGYHFYAIDQRGHGRTAEADELGHFADQGGWGKVVGDLASLNHHIRQQHPELPIFLLGHSMGSYISMAYLLHHSCSLQGAILSGSNYQPQALYRIARLIARFERWRQGPLGKSALIDFLSFGSFNKAFKPNRTAFDWLSRDPQEVDRYVADPLCGFRCSNQLWVDLLGGLADITPPTHLRQIDADLPLLIIGGERDPVSQGKRLGDLADALRGAGLRQVTLKTYPEARHELFNESNRDAVTQDLIDWLEQALRHRRDHST | failed |
| MTISRTQQIQQLEQEWTSPRWKNITRPYSAEDVIKLRGSVNPECTFAQNGAKKLWELLHGGSRKGYINCLGALTGGQALQQAKAGVEAIYMSGWQVAADANTASSMYPDQSLYPVDSVPAVVKRINNSFRRADQIQWSNNIEPGSKGYTDYFLPIVADAEAGFGGVLNAFELMKAMIEAGAAGVHFEDQLAAVKKCGHMGGKVLVPTQEAIQKLVAARLAADVLGVPTLLIARTDADAADLLTSDCDPYDREFITGDRTAEGFFRTRAGIEQAISRGLAYAPYADLVWCETSTPDLALAKRFADAVHAQFPGKLLAYNCSPSFNWKKNLTDQQIASFQDELSAMGYKYQFITLAGIHSMWFNMFDLAHAYAQGEGMKHYVEKVQQPEFASVDRGYTFASHQQEVGTGYFDKVTNIIQGGASSVTALTGSTEEQQF | not failed |
| MESGNVVNTQPELSGIIDGSKSYMYEQLWKLCAGPLCDIPKLGEKVYYFPQGHIELVEASTREELNELQPICDFPSKLQCRVIAIQLKVENNSDETYAEITLMPDTTQVVIPTQNQNQFRPLVNSFTKVLTASDTSVHGGFSVPKKHAIECLPPLDMSQPLPTQEILAIDLHGNQWRFRHIYRGTAQRHLLTIGWNAFTTSKKLVEGDVIVFVRGETGELRVGIRRAGHQQGNIPSSIVSIESMRHGIIASAKHAFDNQCMFIVVYKPRSSQFIVSYDKFLDVVNNKFNVGSRFTMRFEGDDFSERRSFGTIIGVSDFSPHWKCSEWRSLEVQWDEFASFPRPNQVSPWDIEHLTPWSNVSRSSFLKNKRSREVNEIGSSSSHLLPPTLTQGQEIGQQSMATPMNISLRYRDITEDAMTPSRLLMSYPVQPMAKLNYNNVVTPIEENITTNAVASFRLFGVSLATPSVIKDPVEQIGLEISRLTQEKKFGQSQILRSPTEIQSKQFSSTRTCTKVQMQGVTIGRAVDLSVLNGYDQLILELEKLFDLKGQLQARNQWEIAFTNNEEDKMLVGEDPWPEFCNMVKKIFIYSKEEVKNLKSRKSLSS | failed |
| MKIFIVGSTGRVGKSLLKSLSTTDYQIYAGARKVEQVPQYNNVKAVHFDVDWTPEEMAKQLHGIDAIINVSGSGGKSLLKVDLYGAVKLMQAAEKAEVKRFILLSTIFSLQPEKWIGAGFDALKDYYIAKHFADLYLTKETNLDYTIIQPGALTEEEATGLIDINDEVSASNTIGDVADTIKELVMTDHSIGKVISMHNGKTAIKEALESLLEHHHHHH | not failed |
| MKKLMITQEAGVATVLIKNPPVNILTIDLINELNAFILSLKDDRETKVVVFKSFHEAFFIAHLDLNVINGTSGGQAASIEFNHMIANIKAMKQLSIAVVDGVARGGGNEFVMACDLAYGTENSAFAQPELYINIPTGGQGAVQFARRLGKGKALQALLTGADFTAQQAETLNIITQFVLKAELDVFLAQLLSVIVGWEIRDIVMYKEIIAASIKDEAVGTELELRYFLERAREEKTQTIIAAFLKHGGQTEREAKDMQGIFVDTAAELSK | failed |
| MRPKANQNHKLKVLLVFLLATLILIFIVRSTLTSSQEHQTPQETRSTRCSGACNKLPRSLAQALIHYSTSVITPQQTLKEIAVSSRVLGKKSPCNFLVFGLGHDSLMWSSLNYGGRTVFLEEDEAWIKQIKRRFPMLESYHVTYDSKVNQADNLIEVGKGPECTAIGDPRYSMCQLALKGLPAEIYETGWDLIMVDAPTGYYDEAPGRMTAIYTAGMMARNRKQGGETDVFVHDVNREIEDKFSKAFLCEGYMKKQEGRLRHFIIPSYRDGSESESNRPFCP | failed |
| MRKRGIMSKRLLAVLCMASVTTSLFSFRGLEVKASPNVPYDQKESLAPLGEVYSIETLLNWTPESDPDAKYNRASIELQDRFMGDIVNENANPEAKIMNVALTNPYVDRAPSQGSDSMDAYVFSYWQYVNSYVYWGGSSRGIFALPTPDVVDNAHKNGVPVLATIGFPWGPGEGYVEQVRAFLQKDNNGNFPVADKMIEIAEYYGFDGYFFNQESYGCVKDDADRMVEMLEYIKKKAPNMVIGWYDSMTVDGNVKWQDALNDKNAAFFQNGENRTTDEFFLNYNWTPEKIETTVNTAKSLGRSPFDVYAGLDVQQNAYNTPFNDDYLLDENGKLRLSLAMYTPNSTFSMAKDVYDFYKHDQKFWVGPTGDPSKSDTEQDWTGLANYVPDRSAINDLPFVTNFNLGHGEDYYIDGSLSRDEEWNNRAMQEYLPTWRWIVESNGSKLTPDFDFKTAYNGGSSLKVEGKLEAANPNHIKLYSTDLNIENNSTELSIVYKTESAPNMKVGLCFGENYDEENFTFFDVNKNSNGEWTEVKIPLGDHVGKTISAISLKFESGQDVENFKINVGQISIEETAENNKGLKNSDVILEETMVHNSNSAEARIYWNGLESGNEDDLAFYEIYRIKPDGSRELMGATPNDAYYVQEFERYGEEMEFDIEVVPVDVNYNRGEGKRVTFNWGIPHDATQIPDKKVYENLALYKSVQTSAEGAAEPGLKAVDGKVDNNSKWCAAGAKDGWLTIDLGEPKNIQRWVVKHAEAGGEAKDMNTKDFALEVSYDGGQTYQEVDVVTGNEDAITDRNLENPIVAQHLRLRIDNSGSSPWAAIRIYEFQLYEETFTDQTTEIPMRFVNAKNNKGANDSVLFTRGKEGQTVNLYKGLNDETPFATATIDSNGEAKFEGLDFGEDGGRVYYGTVEEGKRESLRMSAAFEGENWEYSKVPERFELTPYKAPGMNGENHNYGTLKINDLEAGDIVSIFNDKDSIFPEKVSVPVAKGGDTAILDRISINPEGGVLTLEVKSEGKKARRIEVPYSGFGEIEMKIESEAPTNLRTVDVQKKSVSLAWDSPENTYGLEGYIIYKDNKKVGEVSADETEFTVGKLNRHTIYNFKVAAKYSNGEISKRDTITVRTAR | failed |
| MEQKSKFSSATVFSGKLLIASLFILSGILLFARNMGWITAELFNIIVSWHSLLIILGIYSMIRRHFVGGIILVLVGVYFLLGGLSWLPENSQAMVWPLALIIAGVLFLFKSRHRGPWDDKQRMFRDHREWMKHGHHGHAGMNFTDNQQQCESEDGFLRSDNTFGAARHVVLDELFKGAVVRTSCGGTTIDLRHTHIAPGETYIDIDCSWGGVEIYVPSDWKVVFKCNTFFGGCDDKRWQNGNINKESVLVIRGRLSFGGLEVKD | failed |
| MVSPKKLTPAMEQVKTFKEKYPDCILFMRMGDFYETFFEDAEICARELDIVQTSRSKDPEGNPIPLAGIPYHAVDLYLPRMIRKGYKVAVCEQVEDPKLAKGVVKRDVVRVVTPGTAIDADVIPGPTARYLMALCSDAKKTVMGLAFLDISTGEFFVREIPFEPGFSALATEIEQYNPLEILVPQGISADLISFLASTCKVLTPGRSGLFVDGTAELTAAFCVSSLDGFDVSSAECINAAAAALRYAKETQKTSLPHIRGFSRKYANDAMILDAITLRNLEILNPLRGDRNDTTLFGFLNRTKTPMGSRVLRSTITRPLTSPEKINHRLDAVGFFTRRPVLLSGTRTILSRFTDIERIAGRIAYGNASPRDLLALASSLAAVPELTAELCGAEGLLKDELEQIPSFDGVADLILSAIVDEPPLVYKNGGVIREGYSSDLDQIRNIVTNGRDWIAELQQTERERTGIRSLKIAYNNVFGYYIEITKANLHLVPDTYERKQTTANGERFTIPALREREAVMAQADDRVLALEISLFESLLTHLSEFVPALQQASRSIGTIDMIAAFADLSLSGNYVRPELVPGTELLIRDGRHPIVENTVPGGYVPNDTEMSSIGQQILILTGANMAGKSTYMRSVALICIMAQTGCFVPASFARIGIVDRVFTRVGASDDLAGGQSTFMVEMLELANILNNATDQSLILLDEIGRGTSTVDGYAIARAVLEYLHGKGGAGPRTLFATHFHQLIGMESELRRVRNYHFAVKEDQHDITFLRKLIPGATDRSYGIHVAKIAGVPKKVLVRASDLLREALTQDASSGGTKYYTQMLLTDAEPAPSAVEERIRDADPNMMTPMQALMFINELKALLEKK | failed |
| RYENILLPTDGSEGADLAIEWGITLAEIYDATVHTLYSVDTSRFGGVEGSAEIHDALEETGQEALETVHERARDADVSIAGNIASGPAARAILSYSEEHDIDLIAMGTHGRSGLTRYLTGSVTETVVRNAAVPVCCVPMQ | failed |
| MEIMEFEEAFKEVYEMVKPKYKLFTAGPVACFPEVLEIMKVQMFSHRSKEYRKVHMDTVERLREFLEVEKGEVLLVPSSGTGIMEASIRNGVSKGGKVLVTIIGAFGKRYKEVVESNGRKAVVLEYEPGKAVKPEDLDDALRKNPDVEAVTITYNETSTGVLNPLPELAKVAKEHDKLVFVDAVSAMGGADIKFDKWGLDVVFSSSQKAFGVPPGLAIGAFSERFLEIAEKMPERGWYFDIPLYVKYLKEKESTPSTPPMPQVFGINVALRIIEKMGGKEKWLEMYEKRAKMVREGVREIGLDILAEPGHESPTITAVLTPPGIKGDEVYEAMRKRGFELAKGYGSVKEKTFRIGHMGYMKFEDIQEMLDNLREVINELKKQKGIN | not failed |
| MSAKTNAEVVIDGKVYTLSGYENEEYLQKVAAYINNKIAEFDDMDEYKHLPGNMKSTLIELNIADDYFKAKALVEKLEGDIENKDKEIYDLKHDLISNQVKTENAEASMKELEAQNKELLLNKARLEATLEESLLDGKKPVKKSAHASKGANDSSDK | failed |
| MSLGAFLDKPKTEKHNAHGAGNGLRYGLSSMQGWRVEMEDAHTAVVGIPHGLEDWSFFAVYDGHAGSRVANYCSTHLLEHITTNEDFRAAGKSGSALELSVENVKNGIRTGFLKIDEYMRNFSDLRNGMDRSGSTAVGVMISPKHIYFINCGDSRAVLYRNGQVCFSTQDHKPCNPREKERIQNAGGSVMIQRVNGSLAVSRALGDYDYKCVDGKGPTEQLVSPEPEVYEILRAEEDEFIILACDGIWDVMSNEELCEYVKSRLEVSDDLENVCNWVVDTCLHKGSRDNMSIVLVCFSNEGHHHHHH | not failed |
| MTAYDLKLKCVCDYIQQHLDETLSLQQLSEVAGLSRFHFHRIFYAHLGMNIMKYTQMLRLKRASFQLVFKPEVKVIEIALDAGFDSPEAFARAFKRSFDQTPSAFRVEPNWQNWHRKFVYFTPESELKMNVTIIERPVEKIAYISHQGSPEKVFETAAKFIEWRKRTGLSPVKTSATYGIPFSDPEQTPEKEFRFDIAGSITKSIDQNNEGIEMSEIPAGRYAMVRHWGSHDYIRDSVYFLFRNWLPAQQEEAGDYPVFFHYHNFVHEVKEADLVTDIYLLLK | failed |
| FTNHKGNPMQTERFNKILREAAKDVGIDKEVSSHILRHSHISLLSQQGVSLKAIMDRVGHSDHRTTLSIYSHVTEQMDKDMMNKLEQVKLG | failed |
